Experimental data: IntAct's records for PubMed 9162036

Molecular target: ap2m1_rat Ap2m1 (UniProt P84092)
Sequence (P84092 whole entry): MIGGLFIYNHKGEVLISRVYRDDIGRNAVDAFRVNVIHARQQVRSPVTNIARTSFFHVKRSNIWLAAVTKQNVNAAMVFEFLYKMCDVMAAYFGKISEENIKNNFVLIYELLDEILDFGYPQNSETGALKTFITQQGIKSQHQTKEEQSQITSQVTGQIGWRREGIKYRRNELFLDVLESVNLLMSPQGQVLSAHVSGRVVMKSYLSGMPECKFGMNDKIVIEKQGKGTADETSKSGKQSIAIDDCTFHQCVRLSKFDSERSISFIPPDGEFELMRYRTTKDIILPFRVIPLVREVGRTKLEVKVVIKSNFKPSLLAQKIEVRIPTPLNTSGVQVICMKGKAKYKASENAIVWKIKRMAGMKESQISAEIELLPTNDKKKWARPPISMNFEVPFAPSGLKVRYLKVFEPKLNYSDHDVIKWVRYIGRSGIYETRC

Trans-Golgi network integral membrane protein TGN38 (Rattus norvegicus (Rat)), P19814 Y350A, sequence (P19814 whole entry Y350A): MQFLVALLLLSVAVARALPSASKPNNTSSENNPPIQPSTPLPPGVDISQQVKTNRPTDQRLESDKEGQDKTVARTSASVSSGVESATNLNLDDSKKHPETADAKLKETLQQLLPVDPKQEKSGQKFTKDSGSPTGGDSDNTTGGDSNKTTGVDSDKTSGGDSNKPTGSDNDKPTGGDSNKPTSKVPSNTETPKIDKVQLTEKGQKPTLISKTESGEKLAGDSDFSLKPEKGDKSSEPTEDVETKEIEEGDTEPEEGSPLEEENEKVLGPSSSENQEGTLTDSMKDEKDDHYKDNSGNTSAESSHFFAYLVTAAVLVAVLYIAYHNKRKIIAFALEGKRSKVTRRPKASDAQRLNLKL
Trans-Golgi network integral membrane protein TGN38 (Rattus norvegicus (Rat)), P19814 S348A, sequence (P19814 whole entry S348A): as the sequence (P19814 whole entry Y350A) above, with S348A, A350Y counted along it

Substance	effect of a mutation on the interaction
Trans-Golgi network integral membrane protein TGN38 (Rattus norvegicus (Rat)), P19814 Y350A	decreasing interaction
Trans-Golgi network integral membrane protein TGN38 (Rattus norvegicus (Rat)), P19814 S348A	decreasing interaction
